Columns and labels:
c-Abl (mouse) = test: phosphorylation enrichment, bacterial display (enrichment ratio); higher = better substrate or ligand; peptides without Tyr show the background
FGFR1 = FGFR1 (UniProt P11362); test: as above
Hck = Hck (UniProt P08631); test: as above
AncSZ = test: as above
Fyn = Fyn (UniProt P06241); test: as above
EPHB2 = EPHB2 (UniProt P29323); test: as above
Fer (mouse) = test: as above
Jak2 = Jak2 (UniProt O60674); test: as above
EPHB1 = EPHB1 (UniProt P54762); test: as above
MERTK = MERTK (UniProt Q12866); test: as above
c-Src = test: as above
Fes = Fes (UniProt P07332); test: as above
FGFR3 = FGFR3 (UniProt P22607); test: as above
Grb2 SH2 = Grb2 SH2 (UniProt P62993); test: SH2 binding enrichment of the phosphorylated peptide, bacterial display (enrichment ratio); higher = better substrate or ligand; peptides without Tyr show the background
SHP2-C SH2 = test: as above
c-Src SH2 = test: as above
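For SH2 binding enrichment of the phosphorylated peptide, bacterial display in this document: peptide library displayed on the E. coli surface as eCPX fusions, selected cells deep-sequenced, score is each peptide's frequency after selection divided by its frequency in the input.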
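For phosphorylation enrichment, bacterial display in this document: 11-residue human phosphosite peptides and single-mutation variants displayed on the E. coli surface, counted by deep sequencing, each peptide's frequency after selection divided by its frequency in the unselected input library; frequency after pTyr selection over input frequency; kinase dosed for 20-30% of maximal phosphorylation in three min.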

Chain of Hck (P08631 whole entry, looked up): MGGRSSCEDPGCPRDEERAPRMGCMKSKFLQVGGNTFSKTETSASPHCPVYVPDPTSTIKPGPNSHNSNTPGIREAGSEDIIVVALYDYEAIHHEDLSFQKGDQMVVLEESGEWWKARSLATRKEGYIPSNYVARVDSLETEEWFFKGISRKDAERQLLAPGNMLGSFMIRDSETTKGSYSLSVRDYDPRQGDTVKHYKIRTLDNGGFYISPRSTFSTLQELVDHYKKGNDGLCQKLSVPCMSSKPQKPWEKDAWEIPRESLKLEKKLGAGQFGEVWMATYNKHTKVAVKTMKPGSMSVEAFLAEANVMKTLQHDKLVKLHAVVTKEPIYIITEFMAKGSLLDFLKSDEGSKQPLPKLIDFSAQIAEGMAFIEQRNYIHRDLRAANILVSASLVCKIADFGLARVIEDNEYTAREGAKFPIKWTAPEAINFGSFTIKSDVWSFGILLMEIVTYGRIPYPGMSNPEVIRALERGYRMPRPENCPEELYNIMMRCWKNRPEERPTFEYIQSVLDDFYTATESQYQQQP
Chain of Grb2 SH2 (P62993 whole entry, looked up): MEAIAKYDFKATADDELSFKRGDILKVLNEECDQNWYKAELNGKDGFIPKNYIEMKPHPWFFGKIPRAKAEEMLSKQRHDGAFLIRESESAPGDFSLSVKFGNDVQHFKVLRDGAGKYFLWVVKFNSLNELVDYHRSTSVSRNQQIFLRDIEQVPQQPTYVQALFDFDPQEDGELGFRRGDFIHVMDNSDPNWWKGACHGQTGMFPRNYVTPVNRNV
Chain of EPHB2 (P29323 whole entry, looked up): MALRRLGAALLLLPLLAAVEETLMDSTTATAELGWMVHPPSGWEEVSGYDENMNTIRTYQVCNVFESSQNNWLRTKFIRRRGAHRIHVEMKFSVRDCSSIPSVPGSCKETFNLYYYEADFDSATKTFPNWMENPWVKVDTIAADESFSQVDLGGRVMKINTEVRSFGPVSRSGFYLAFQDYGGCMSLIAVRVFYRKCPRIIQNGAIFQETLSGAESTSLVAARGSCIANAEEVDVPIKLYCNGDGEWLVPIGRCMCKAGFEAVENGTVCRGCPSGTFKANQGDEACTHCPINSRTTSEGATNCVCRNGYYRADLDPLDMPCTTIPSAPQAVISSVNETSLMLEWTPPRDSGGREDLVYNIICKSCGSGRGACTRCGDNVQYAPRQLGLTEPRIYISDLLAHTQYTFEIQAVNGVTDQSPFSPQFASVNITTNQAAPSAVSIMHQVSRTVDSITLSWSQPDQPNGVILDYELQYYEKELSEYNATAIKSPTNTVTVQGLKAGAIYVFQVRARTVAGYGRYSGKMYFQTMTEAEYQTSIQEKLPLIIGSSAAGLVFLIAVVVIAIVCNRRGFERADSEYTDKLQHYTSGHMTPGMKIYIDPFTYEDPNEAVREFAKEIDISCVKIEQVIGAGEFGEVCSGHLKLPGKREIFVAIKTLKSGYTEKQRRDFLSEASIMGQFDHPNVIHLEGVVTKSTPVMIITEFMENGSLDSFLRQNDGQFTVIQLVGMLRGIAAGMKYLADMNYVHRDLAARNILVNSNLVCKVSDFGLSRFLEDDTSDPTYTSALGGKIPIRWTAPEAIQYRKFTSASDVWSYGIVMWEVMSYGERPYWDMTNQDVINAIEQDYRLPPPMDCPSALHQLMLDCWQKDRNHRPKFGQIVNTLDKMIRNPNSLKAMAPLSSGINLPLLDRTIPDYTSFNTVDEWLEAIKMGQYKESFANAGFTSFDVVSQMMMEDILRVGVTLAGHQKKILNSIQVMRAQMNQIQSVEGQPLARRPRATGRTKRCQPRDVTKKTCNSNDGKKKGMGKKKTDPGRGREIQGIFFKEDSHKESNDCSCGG
Chain of Fyn (P06241 whole entry, looked up): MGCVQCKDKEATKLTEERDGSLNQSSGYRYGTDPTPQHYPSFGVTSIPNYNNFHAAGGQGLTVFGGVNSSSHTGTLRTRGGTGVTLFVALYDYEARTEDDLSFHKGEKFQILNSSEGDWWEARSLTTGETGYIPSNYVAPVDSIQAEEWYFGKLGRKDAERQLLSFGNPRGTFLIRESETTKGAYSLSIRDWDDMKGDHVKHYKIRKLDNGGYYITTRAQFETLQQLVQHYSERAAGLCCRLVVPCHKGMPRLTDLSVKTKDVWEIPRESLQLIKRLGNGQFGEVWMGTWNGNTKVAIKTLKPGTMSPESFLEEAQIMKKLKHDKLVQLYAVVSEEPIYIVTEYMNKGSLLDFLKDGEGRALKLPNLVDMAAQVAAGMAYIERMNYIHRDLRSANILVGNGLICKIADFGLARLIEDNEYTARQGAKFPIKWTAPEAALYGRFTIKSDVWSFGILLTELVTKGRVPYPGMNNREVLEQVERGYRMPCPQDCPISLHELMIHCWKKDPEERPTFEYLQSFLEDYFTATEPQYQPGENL
Chain of MERTK (Q12866 whole entry, looked up): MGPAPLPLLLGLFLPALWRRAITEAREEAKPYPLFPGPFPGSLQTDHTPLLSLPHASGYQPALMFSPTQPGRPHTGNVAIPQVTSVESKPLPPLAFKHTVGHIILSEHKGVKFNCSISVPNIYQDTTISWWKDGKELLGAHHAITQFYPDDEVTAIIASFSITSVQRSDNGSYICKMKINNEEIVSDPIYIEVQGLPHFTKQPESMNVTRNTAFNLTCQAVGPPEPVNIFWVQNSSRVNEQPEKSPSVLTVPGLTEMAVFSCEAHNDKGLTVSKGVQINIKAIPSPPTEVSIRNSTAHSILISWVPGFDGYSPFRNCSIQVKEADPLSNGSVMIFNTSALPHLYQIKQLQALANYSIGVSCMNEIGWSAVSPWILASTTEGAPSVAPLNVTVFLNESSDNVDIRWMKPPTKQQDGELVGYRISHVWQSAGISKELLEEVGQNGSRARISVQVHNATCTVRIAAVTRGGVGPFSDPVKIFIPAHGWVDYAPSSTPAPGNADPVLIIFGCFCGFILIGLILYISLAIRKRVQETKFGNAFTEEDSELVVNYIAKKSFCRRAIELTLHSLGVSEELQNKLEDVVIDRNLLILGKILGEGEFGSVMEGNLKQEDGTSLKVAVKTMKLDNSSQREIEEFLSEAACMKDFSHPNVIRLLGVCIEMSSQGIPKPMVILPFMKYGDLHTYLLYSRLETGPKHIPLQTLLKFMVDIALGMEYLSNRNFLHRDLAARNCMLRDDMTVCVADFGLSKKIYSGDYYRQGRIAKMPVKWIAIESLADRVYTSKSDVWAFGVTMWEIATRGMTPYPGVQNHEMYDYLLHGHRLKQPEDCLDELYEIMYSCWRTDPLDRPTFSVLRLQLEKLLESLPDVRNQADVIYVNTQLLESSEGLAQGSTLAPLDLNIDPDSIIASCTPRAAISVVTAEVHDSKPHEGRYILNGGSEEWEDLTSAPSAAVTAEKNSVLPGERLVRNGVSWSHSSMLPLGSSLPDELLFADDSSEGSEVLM
Chain of FGFR3 (P22607 whole entry, looked up): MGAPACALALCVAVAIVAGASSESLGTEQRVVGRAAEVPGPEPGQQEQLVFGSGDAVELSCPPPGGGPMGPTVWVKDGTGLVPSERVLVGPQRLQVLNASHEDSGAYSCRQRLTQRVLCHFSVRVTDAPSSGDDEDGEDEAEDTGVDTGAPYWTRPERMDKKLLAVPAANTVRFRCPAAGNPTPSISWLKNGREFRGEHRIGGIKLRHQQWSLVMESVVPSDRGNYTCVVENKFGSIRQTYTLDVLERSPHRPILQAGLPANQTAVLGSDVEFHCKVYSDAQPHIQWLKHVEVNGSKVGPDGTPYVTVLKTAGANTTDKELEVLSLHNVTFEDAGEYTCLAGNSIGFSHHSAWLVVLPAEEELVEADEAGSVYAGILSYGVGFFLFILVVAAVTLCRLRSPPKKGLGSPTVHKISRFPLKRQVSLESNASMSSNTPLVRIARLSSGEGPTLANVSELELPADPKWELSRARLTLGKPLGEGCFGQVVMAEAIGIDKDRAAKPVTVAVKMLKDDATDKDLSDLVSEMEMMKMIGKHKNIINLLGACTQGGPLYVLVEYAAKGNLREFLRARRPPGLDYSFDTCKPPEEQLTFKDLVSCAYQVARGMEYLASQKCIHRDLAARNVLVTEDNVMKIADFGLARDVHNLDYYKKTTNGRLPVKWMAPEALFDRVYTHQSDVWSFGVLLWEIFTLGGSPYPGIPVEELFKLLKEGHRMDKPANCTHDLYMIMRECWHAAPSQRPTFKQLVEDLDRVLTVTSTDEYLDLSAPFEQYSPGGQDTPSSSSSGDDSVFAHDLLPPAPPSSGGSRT
Chain of Fes (P07332 whole entry, looked up): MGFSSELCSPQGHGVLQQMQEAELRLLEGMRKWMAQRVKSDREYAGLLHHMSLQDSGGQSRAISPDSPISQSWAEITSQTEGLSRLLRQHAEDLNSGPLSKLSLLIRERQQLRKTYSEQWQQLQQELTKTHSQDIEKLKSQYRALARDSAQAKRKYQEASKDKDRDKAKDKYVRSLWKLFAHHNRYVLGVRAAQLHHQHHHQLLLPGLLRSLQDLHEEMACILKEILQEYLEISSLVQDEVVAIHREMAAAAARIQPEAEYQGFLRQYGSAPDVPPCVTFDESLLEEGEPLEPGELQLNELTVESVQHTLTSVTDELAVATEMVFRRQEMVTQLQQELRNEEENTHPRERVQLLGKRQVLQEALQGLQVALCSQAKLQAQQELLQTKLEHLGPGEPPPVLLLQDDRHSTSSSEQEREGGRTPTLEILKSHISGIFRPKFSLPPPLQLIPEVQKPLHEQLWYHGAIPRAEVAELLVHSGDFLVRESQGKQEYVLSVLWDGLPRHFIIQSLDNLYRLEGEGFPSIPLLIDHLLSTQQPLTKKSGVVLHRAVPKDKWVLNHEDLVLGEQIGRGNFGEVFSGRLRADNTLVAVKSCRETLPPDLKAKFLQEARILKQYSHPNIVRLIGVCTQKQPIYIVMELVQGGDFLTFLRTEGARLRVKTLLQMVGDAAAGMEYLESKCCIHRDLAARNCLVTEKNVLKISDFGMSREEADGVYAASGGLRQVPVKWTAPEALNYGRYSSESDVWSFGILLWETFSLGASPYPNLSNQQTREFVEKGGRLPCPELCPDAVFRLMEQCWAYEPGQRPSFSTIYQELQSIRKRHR

Row | Sequence | phosphorylation enrichment (c-Abl (mouse)) | phosphorylation enrichment (FGFR1) | phosphorylation enrichment (Hck) | phosphorylation enrichment (AncSZ) | phosphorylation enrichment (Fyn) | phosphorylation enrichment (EPHB2) | phosphorylation enrichment (Fer (mouse)) | phosphorylation enrichment (Jak2) | phosphorylation enrichment (EPHB1) | phosphorylation enrichment (MERTK) | phosphorylation enrichment (c-Src) | phosphorylation enrichment (Fes) | phosphorylation enrichment (FGFR3) | SH2 binding enrichment (Grb2 SH2) | SH2 binding enrichment (SHP2-C SH2) | SH2 binding enrichment (c-Src SH2)
1 | MSRFIYSTDFF [NTRK1_Y676_D674Y_YF] | 0.664 | 1.47 | 2.49 | 0.887 | 4.15 | 2.11 | 0.887 | 1.04 | 2.29 | 8.57 | 4.05 | 1.31 | 1.27 | 1.14 | 1.05 | 0.806
2 | MTRDIYRASYY [ALK_Y1278_A1274T] | 2.42 | 0.844 | 1.17 | 0.725 | 0.888 | 0.579 | 0.462 | 0.63 | 0.598 | 0.827 | 1.66 | 0.702 | 0.676 | 0.876 | 0.704 | 0.786
3 | MWGSDYVQLSR [MAP3K4_Y582] | 0.53 | 7.1 | 1.12 | 1.67 | 0.685 | 6.29 | 0.383 | 5.71 | 9.41 | 0.561 | 1.08 | 0.765 | 4.02 | 0.646 | 0.521 | 0.583
4 | NAGDYYDLYGG [PTPN11_Y63_T59A] | 1.13 | 19.3 | 6.95 | 5.5 | 7.13 | 15.9 | 2.53 | 4.53 | 16.3 | 3.96 | 6.14 | 1.55 | 18.9 | 0.89 | 0.595 | 0.633
5 | NFATLHLKIFH [PDE6B_Y219_Y219H_YF] | 0.918 | 0.652 | 0.492 | 1.26 | 0.519 | 0.74 | 0.565 | 1.24 | 0.607 | 0.56 | 0.522 | 1.44 | 0.817 | 1.22 | 1.26 | 1.04
6 | NFCPGYNNFFN [USH2A_Y467_R464C_YF] | 0.577 | 0.415 | 0.426 | 0.733 | 0.434 | 0.43 | 0.455 | 0.775 | 0.393 | 0.458 | 0.719 | 0.79 | 0.524 | 2.15 | 0.889 | 1.05
7 | NGEDPYAGSTD [XRCC1_Y515] | 0.779 | 0.646 | 0.581 | 1.21 | 0.524 | 0.508 | 0.431 | 0.809 | 0.431 | 0.399 | 0.55 | 1.1 | 0.67 | 0.638 | 0.782 | 0.547
8 | NGSFRYVIISQ [LRP1B_Y1988] | 0.727 | 0.603 | 0.657 | 1.12 | 0.528 | 0.581 | 0.513 | 0.958 | 0.599 | 0.448 | 0.422 | 1.25 | 0.71 | 1.17 | 5.12 | 2.17
9 | NHYKIYNLYAE [PTEN_Y68_C71Y] | 0.56 | 0.461 | 2.54 | 0.749 | 2.14 | 0.641 | 0.481 | 0.664 | 0.455 | 0.461 | 2.43 | 0.723 | 0.541 | 0.862 | 0.698 | 0.675
10 | NKEAIYSGYIR [SMCHD1_Y283] | 24.3 | 0.565 | 10.4 | 0.724 | 11.3 | 11.2 | 3.43 | 0.571 | 5.4 | 9.45 | 7.96 | 0.687 | 0.526 | 0.871 | 0.845 | 0.567
11 | NKVQFYIPDMN [NCR1_Y84_K82Q] | 0.744 | 0.579 | 0.532 | 0.801 | 0.411 | 0.533 | 0.447 | 1.01 | 0.501 | 0.483 | 0.431 | 0.984 | 0.711 | 0.976 | 0.888 | 0.464
12 | NLDRFYQQVTK [SEC16A_Y1041] | 0.587 | 0.45 | 0.599 | 0.734 | 0.43 | 0.531 | 0.621 | 0.639 | 0.516 | 0.58 | 0.498 | 0.766 | 0.574 | 0.862 | 0.628 | 2.6
13 | NNPAFYVLEGV [INPPL1_Y987_YF] | 0.616 | 0.653 | 0.485 | 0.956 | 0.699 | 0.581 | 0.42 | 0.87 | 0.5 | 0.554 | 0.638 | 1 | 0.612 | 0.768 | 0.693 | 0.682
14 | NNRVFYGNSDC [RS1_Y177_R182C] | 0.742 | 0.467 | 0.429 | 0.954 | 0.434 | 0.486 | 0.432 | 0.862 | 0.489 | 0.369 | 0.381 | 0.863 | 0.62 | 1.16 | 0.811 | 0.613
15 | NPETCYQKLKK [TK2_Y190_R192K] | 0.765 | 0.444 | 0.583 | 0.906 | 0.428 | 0.451 | 0.509 | 0.921 | 0.583 | 0.386 | 0.425 | 1.07 | 0.774 | 0.829 | 0.814 | 0.783
